Experiments:
[1] = target: T1, VEGF165 (293-VE) (UniProt P15692-4 27-191); experiment: solution binding: about 40 pM VEGF165 incubated with the protein, free VEGF read by DuoSet ELISA
T1 construct: the UniProt canonical entry is a longer isoform; also called VEGF-A
Method: (§1) After incubation, free VEGF was detected using the Human VEGF DuoSet ELISA Development Kit (R&D Systems Catalog No. DY293B) according to the manufacturer's instructions. The data was analyzed by sigmoidal curve fitting using Prism 4.

[2] = target: T1, VEGF165 (293-VE); experiment: solution binding: VEGF165 incubated 45 min at 37 C with titrated VID, free VEGF measured by ELISA (Human VEGF DuoSet kit)
Method: as §1

T1 sequence (P15692 other isoform, or with tags, fused parts or gaps limits assumed): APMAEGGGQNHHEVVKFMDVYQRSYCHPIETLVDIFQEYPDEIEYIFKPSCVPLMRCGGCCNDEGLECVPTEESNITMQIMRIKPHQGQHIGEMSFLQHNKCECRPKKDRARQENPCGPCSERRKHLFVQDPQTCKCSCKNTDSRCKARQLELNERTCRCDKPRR

EC50 [1]: ~0.7 nM
EC50 [2]: 0.0731 nM
B1: VID (fragment of ACVP-1 wherein the VID has the Fc domain fused to its C-terminus) (Fc fusion)
chain: GRPFVEMYSEIPEIIHMTEGRELVIPCRVTSPNITVTLKKFPLDTLIPDGKRIIWDSRKGFIISNATYKEIGLLTCEATVNGHLYKTNYLTHRQTNTIIDVVLSPSHGIELSVGEKLVLNCTARTELNVGIDFNWEYPSSKHQHKKLVNRDLKTQSGSEMKKFLSTLTIDGVTRSDQGLYTCAASSGLMTKKNSTFVRVHEK
notes: not shown: human IgG1 Fc region as in ACVP-1

From patent publication US20180312819A1 (AP BIOSCIENCES, published 2018)
